B1: LINE1-mini (parent)
chain: GGCAGAGCUCAACACAGCGUGGCAAAGUGGCUGUGGCUAGACUGCC

Variants of: B1
Experiment: self-cleavage, relative activity (ratio to wild type); higher = more cleavage; in vitro, sequencing; the parent is a self-cleaving ribozyme

Row | Variant | self-cleavage
1 | GGCAGAGAUCAACACAGCGUGGCAAAGUGGCUGUGGCUAGACUGCA | 0.35
2 | GGCAGAGCUCAACACAGCGUGGCACUGUGGCUGUGGCUAGACUGCC | 0.68
3 | GGCAGAGCUCAAGACAGCGUGGCAAAGUGGCUGUGGCUAGCCUGCC | 0.04
4 | GGCCGCGCUCAACACAGCGUGGCAAAGUGGCUGUGGCUAGACUGCC | 0.09
5 | GGCAGAGCUCACCAAAGCGUGGCAAAGUGGCUGUGGCUAGACUGCC | 0.03
6 | GGCAGAUCUCAACCCAGCGUGGCAAAGUGGCUGUGGCUAGACUGCC | 0.09
7 | GGCAGAGUUCAUCACAGCGUGGCAAAGUGGCUGUGGCUAGACUGCC | 0.29
8 | GGUAGAGCACAACACAGCGUGGCAAAGUGGCUGUGGCUAGACUGCC | 0.29
9 | GGUAGAGCCCAACACAGCGUGGCAAAGUGGCUGUGGCUAGACUGCC | 0.07
10 | GGCAGAGUUCAACACAGCGUGGCAAAGUGGCUUUGGCUAGACUGCC | 0.16
11 | GGCAGAACUCAACACAGCGUGGGAAAGUGGCUGUGGCUAGACUGCC | 0.21
12 | GGCAGAGCUCAACACAGCGUGGCAAAGUGGCUGUGGCUAACCUGCC | 0.13
13 | GGCAGACCUCAACACAGCGGGGCAAAGUGGCUGUGGCUAGACUGCC | 0.12
14 | GGCAGAGCUCAACACAGCGUGGCAAGGUGGCUGUGGCUAUACUGCC | 0.15
15 | GGCAGAGCUCAAGACAGCGUGGCAAGGUGGCUGUGGCUAGACUGCC | 0.08
16 | GGCAGAGCUCAACACAGCCUGGCAAAGUGGCUGUGGCUAGACUCCC | 0.12
17 | GGCAGAGCUCAACACAGCGUGGCAAAGCGGCCGUGGCUAGACUGCC | 0.27
18 | GGCAGAGCUCAAAACAGCGUGGCAAAGUGGCUGUGGCUAGACUGCC | 0.15
19 | GGCGGAGCUCAACACAGCGUGGCAAAGUGGCUGUGGCUAGACUUCC | 0.16

Row | Variant | self-cleavage
20 | GGCAGAGCUCAACACAGCGUGUCAUAGUGGCUGUGGCUAGACUGCC | 1.49
21 | GGCAGAGCUCAACACAGCGGGGUAAAGUGGCUGUGGCUAGACUGCC | 0.54
22 | GGCAGAGCUCAACACAGCGUGGCAAAGUAGCUGUGGCUAGACGGCC | 0.04
23 | GGCAUAGCUCAACACAGCGUGGCAAAGUGGCUGUAGCUAGACUGCC | 0.08
24 | GGCAGAGCUCAACACAGCGUGGCAAAGUGGGUGUGGCUAGAGUGCC | 0.06
25 | GCCAGAGCUCAAUACAGCGUGGCAAAGUGGCUGUGGCUAGACUGCC | 0.18
26 | GGCAGAGCUCAACACAUCGUGGCAAAGCGGCUGUGGCUAGACUGCC | 1.16
27 | GGCAGAGCUCAACACAGCGUAGCAAAGUGGUUGUGGCUAGACUGCC | 0.63
28 | GGCAGAGCUCAACACAGCGGGGCAAAGUGACUGUGGCUAGACUGCC | 0.66
29 | GGCACAGCUCAACACAGCGUGGCAAAGUGGCUCUGGCUAGACUGCC | 0.03
30 | GGCAGAGCUCAACACAGCGUGGCAAAGUGGCUGUGGCUAGAAAGCC | 0.15
31 | GGCAGCGGUCAACACAGCGUGGCAAAGUGGCUGUGGCUAGACUGCC | 0.07
32 | GGCAGAGCUCAAUACAGCGUGGCAUAGUGGCUGUGGCUAGACUGCC | 0.29
33 | GGCAGAGCUCAACACAGCGUGCCAAAGGGGCUGUGGCUAGACUGCC | 0.43
34 | AGGAGAGCUCAACACAGCGUGGCAAAGUGGCUGUGGCUAGACUGCC | 0.56
35 | GGCAGAGCCCAACACAGAGUGGCAAAGUGGCUGUGGCUAGACUGCC | 0.03
36 | GGCAGAGCUCAACACAGCGUGGCAAAGUGGCUGUUGCUAGAAUGCC | 0.08
37 | GGCAGAGCUCAACACAGCGUGGCAAAGUGGCUGUGGGUAGACUGCA | 0.02
38 | GGCAGAGCUCAACACAGCGUGGCAAAGUGGCCGUAGCUAGACUGCC | 0.06

Row | Variant | self-cleavage
39 | GGCAGAGCUCAACACAGCGUGACAAAGUGGCUGUGGGUAGACUGCC | 0.03
40 | GGCAGAGCUCAACACUGCGUGGCAAAGUGGCUGUGGCUAGACUGCC | 0.15
41 | GGCAAAGCUCAACACAGCGUGGCAAACUGGCUGUGGCUAGACUGCC | 0.07
42 | GGCAGAGCUCAACACAGCGUGCCAAAGUGGCUGUGGCUCGACUGCC | 0.19
43 | GGCAGAGCGCAACACAGCGUGGCAAAGUGGCUGUGGCUAGACUGCC | 0.15
44 | GGCAGAGCUCAACACAGCGUGGCAAAGUGGCUUUGGCUAGCCUGCC | 0.06
45 | GGCAGAGCUCAACACAGCGUGGCAAAAUUGCUGUGGCUAGACUGCC | 0.5
46 | GGCAGAGCUCAACACAGCGUGGCAAAGUGCCUGUGUCUAGACUGCC | 0.11
47 | GGCAGAGCUUAACACAGCGUGGCAAAGUGGCUGUGGCUAUACUGCC | 0.06
48 | GGCAGAGCUCAACACAGCAUGGCAAAGUGGCUGUGGCUAAACUGCC | 0.11
49 | GGCAGAGCUCAACACAGCGUGGCGAAGUGGCUGUGGCUAGACCGCC | 0.2
50 | GGCAGAGCUCAACACAGCGUGGCAAAGUGGCUGUGGCUUGACCGCC | 0.06
51 | GGCAGAGCUCUACACAGCGUGGCAAAGUGGCUGUGGCUAGACUCCC | 0.03
52 | GGCAGAGCUCAACUCAGCGUGGCAAAGUGGCUGUGGCUAGGCUGCC | 0.1
53 | GGGAGAGCUCAACACUGCGUGGCAAAGUGGCUGUGGCUAGACUGCC | 0.18
54 | GACAGAGCUCAACACAGCGUGGCAAAGUGGUUGUGGCUAGACUGCC | 0.25
55 | GGCAGAGCACAACACAGCGUGGCAAAGUGGCUGUAGCUAGACUGCC | 0.15
56 | GGCAGAGCUCAACACAGCGUCGCAAAGUGGCUCUGGCUAGACUGCC | 0.05

— the RNAGym collection of RNA variant scans (doi:10.7554/elife.90254)
